Measured values reported in the supplement of paper PMC10065799, “High-throughput profiling of sequence recognition by tyrosine kinases and SH2 domains using bacterial peptide display” (eLife, 2023).

These sequences were tested against MERTK (UniProt Q12866) (assay: phosphorylation enrichment, bacterial display (enrichment ratio); higher = better substrate or ligand; peptides without Tyr show the background).
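Further: 11-residue human phosphosite peptides and single-mutation variants displayed on the E. coli surface, counted by deep sequencing, each peptide's frequency after selection divided by its frequency in the unselected input library; frequency after pTyr selection over input frequency; kinase dosed for 20-30% of maximal phosphorylation in three min.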

Sequence of MERTK (Q12866 whole entry, looked up): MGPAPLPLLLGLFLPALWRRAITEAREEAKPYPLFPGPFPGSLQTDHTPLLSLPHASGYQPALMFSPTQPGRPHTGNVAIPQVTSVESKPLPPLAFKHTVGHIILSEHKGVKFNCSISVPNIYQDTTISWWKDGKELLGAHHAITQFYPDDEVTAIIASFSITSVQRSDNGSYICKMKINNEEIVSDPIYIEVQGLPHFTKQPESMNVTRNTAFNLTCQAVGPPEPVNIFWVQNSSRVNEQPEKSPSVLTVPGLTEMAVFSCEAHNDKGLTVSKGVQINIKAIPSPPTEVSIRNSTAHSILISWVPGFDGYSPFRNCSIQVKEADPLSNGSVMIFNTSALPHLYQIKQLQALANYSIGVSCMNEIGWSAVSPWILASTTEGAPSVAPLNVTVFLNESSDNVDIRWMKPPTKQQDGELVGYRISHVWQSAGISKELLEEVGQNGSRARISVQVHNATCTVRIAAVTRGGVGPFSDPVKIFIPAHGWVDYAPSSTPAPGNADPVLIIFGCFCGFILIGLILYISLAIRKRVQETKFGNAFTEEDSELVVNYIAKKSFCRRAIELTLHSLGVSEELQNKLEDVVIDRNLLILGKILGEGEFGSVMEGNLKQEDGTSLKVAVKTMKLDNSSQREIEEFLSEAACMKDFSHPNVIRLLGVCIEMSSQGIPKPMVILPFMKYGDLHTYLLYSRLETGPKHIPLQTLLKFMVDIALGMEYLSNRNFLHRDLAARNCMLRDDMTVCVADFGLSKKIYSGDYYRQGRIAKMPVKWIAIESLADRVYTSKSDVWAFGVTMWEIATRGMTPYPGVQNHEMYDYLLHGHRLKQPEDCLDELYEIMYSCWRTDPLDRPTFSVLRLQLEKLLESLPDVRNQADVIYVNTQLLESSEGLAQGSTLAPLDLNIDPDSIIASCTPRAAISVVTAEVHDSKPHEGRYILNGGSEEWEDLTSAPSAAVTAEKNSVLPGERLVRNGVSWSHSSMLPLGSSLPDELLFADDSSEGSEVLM

Row | Sequence | phosphorylation enrichment
1 | SSEYHYVGGFY [CTSC_Y347] | 6.87
2 | PHMQTYEVDHN [SDHB_Y61_L65H] | 0.425
3 | IGEVVYQWAVM [GRIN2A_Y502_R504W] | 0.904
4 | LTGIAYGLPHW [SLC22A14_Y291_S292G] | 0.508
5 | NDTAGYFVIGG [SEL1L3_Y399_I401V] | 0.872
6 | SLNAVYPRAGR [OAS3_Y376_S381R] | 0.409
7 | KFVKMCDNHQL [MYO9A_Y203_Y203C_YF] | 0.378
8 | FMGVEYSSCDT [EPHA3_Y937_T933M] | 0.479
9 | GNLLIYTDFGK [HGD_Y166_E168D] | 3.44
10 | DSDTDYGSGYP [RNASEH2A_Y206_L202S] | 0.575
11 | ASLLPYFPAIM [IPO4_Y518] | 0.364
12 | WNGDKYAATTT [TRIM39_Y439] | 0.381
13 | QGQHWYSSSDK [CASP10_Y9] | 0.573
14 | HVIKLFGACSQ [RET_Y791_Y791F] | 0.719
15 | RRNTYYASIAK [ACADM_Y353] | 1.13
16 | IENPQYFSDAC [NTRK1_Y496] | 0.546
17 | KGERGYPGTLG [COL4A1_Y348_P352L] | 0.403

Row | Sequence | phosphorylation enrichment
18 | SSLEDYVRETN [GIMAP6_Y176_G171S] | 0.424
19 | SIKDKYVTALC [KCNH2_Y611_Y616C] | 0.346
20 | KPVDTYYDSTR [DYNC2H1_Y2230_M2227V] | 0.397
21 | TNYRFYLRSLE [MTM1_Y71_L70F] | 0.423
22 | RDLTHYLMKIL [ACTG1_Y188_D187H] | 0.583
23 | ASTDYYKRGDF [PDHA1_Y243] | 0.369
24 | QGQHWYSSSDT [CASP10_Y9_K14T] | 0.811
25 | NNHGNYIVHLG [ETFDH_Y172_R175H] | 0.493
26 | YADPYYDYEIE [ZC3H18_Y372] | 2.18
27 | KLFFIYTSGTT [SLC27A4_Y245_YF] | 0.398
28 | CTTIHDNYMCN [TP53_Y234_Y234D] | 0.507
29 | HESEIYCKVCF [CSRP3_Y57_YF] | 3.7
30 | NDFGNYSNQSS [HNRNPA1_Y318_N319S] | 0.501
31 | RDMMDYMPQGV [CYP21A2_Y259_L261P] | 0.681
32 | EMTRNYIIFIE [BCO2_Y294_G289E] | 0.513
33 | ADLAKYICENQ [ALB_Y287] | 0.386

Each sequence was assayed against FGFR1 (UniProt P11362) in the same assay as above.
Sequence of FGFR1 (P11362 whole entry, looked up): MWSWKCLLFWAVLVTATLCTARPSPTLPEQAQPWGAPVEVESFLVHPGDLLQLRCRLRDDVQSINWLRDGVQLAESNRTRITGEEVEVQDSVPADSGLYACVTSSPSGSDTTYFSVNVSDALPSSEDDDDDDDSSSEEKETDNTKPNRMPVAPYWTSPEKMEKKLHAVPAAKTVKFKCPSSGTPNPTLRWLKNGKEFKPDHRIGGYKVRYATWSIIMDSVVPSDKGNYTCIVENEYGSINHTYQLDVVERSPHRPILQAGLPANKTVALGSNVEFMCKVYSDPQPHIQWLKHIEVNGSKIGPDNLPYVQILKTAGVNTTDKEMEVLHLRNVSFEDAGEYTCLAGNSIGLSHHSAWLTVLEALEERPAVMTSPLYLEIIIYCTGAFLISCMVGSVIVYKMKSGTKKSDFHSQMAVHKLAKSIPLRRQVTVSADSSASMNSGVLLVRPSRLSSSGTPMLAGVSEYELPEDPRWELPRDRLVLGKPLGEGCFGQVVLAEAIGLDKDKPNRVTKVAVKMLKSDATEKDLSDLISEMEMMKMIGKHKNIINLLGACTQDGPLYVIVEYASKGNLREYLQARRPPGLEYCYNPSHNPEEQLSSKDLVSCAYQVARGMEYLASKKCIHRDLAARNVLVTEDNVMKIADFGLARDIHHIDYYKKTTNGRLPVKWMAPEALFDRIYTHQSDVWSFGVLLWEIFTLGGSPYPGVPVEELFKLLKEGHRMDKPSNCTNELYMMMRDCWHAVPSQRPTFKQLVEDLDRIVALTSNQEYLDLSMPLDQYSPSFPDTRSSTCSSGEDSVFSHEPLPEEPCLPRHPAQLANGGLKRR

Row | Sequence | phosphorylation enrichment
34 | SSEYHYVGGFY [CTSC_Y347] | 13.4
35 | PHMQTYEVDHN [SDHB_Y61_L65H] | 0.676
36 | IGEVVYQWAVM [GRIN2A_Y502_R504W] | 1.03
37 | LTGIAYGLPHW [SLC22A14_Y291_S292G] | 0.523
38 | NDTAGYFVIGG [SEL1L3_Y399_I401V] | 2.16
39 | SLNAVYPRAGR [OAS3_Y376_S381R] | 0.415
40 | KFVKMCDNHQL [MYO9A_Y203_Y203C_YF] | 0.429
41 | FMGVEYSSCDT [EPHA3_Y937_T933M] | 0.601
42 | GNLLIYTDFGK [HGD_Y166_E168D] | 0.682
43 | DSDTDYGSGYP [RNASEH2A_Y206_L202S] | 0.647
44 | ASLLPYFPAIM [IPO4_Y518] | 0.537
45 | WNGDKYAATTT [TRIM39_Y439] | 0.654
46 | QGQHWYSSSDK [CASP10_Y9] | 0.665
47 | HVIKLFGACSQ [RET_Y791_Y791F] | 0.709
48 | RRNTYYASIAK [ACADM_Y353] | 0.536
49 | IENPQYFSDAC [NTRK1_Y496] | 0.673
50 | KGERGYPGTLG [COL4A1_Y348_P352L] | 0.375

Row | Sequence | phosphorylation enrichment
51 | SSLEDYVRETN [GIMAP6_Y176_G171S] | 0.67
52 | SIKDKYVTALC [KCNH2_Y611_Y616C] | 0.376
53 | KPVDTYYDSTR [DYNC2H1_Y2230_M2227V] | 0.826
54 | TNYRFYLRSLE [MTM1_Y71_L70F] | 0.438
55 | RDLTHYLMKIL [ACTG1_Y188_D187H] | 0.665
56 | ASTDYYKRGDF [PDHA1_Y243] | 0.436
57 | QGQHWYSSSDT [CASP10_Y9_K14T] | 0.657
58 | NNHGNYIVHLG [ETFDH_Y172_R175H] | 0.623
59 | YADPYYDYEIE [ZC3H18_Y372] | 9.62
60 | KLFFIYTSGTT [SLC27A4_Y245_YF] | 0.531
61 | CTTIHDNYMCN [TP53_Y234_Y234D] | 0.541
62 | HESEIYCKVCF [CSRP3_Y57_YF] | 0.821
63 | NDFGNYSNQSS [HNRNPA1_Y318_N319S] | 0.461
64 | RDMMDYMPQGV [CYP21A2_Y259_L261P] | 0.799
65 | EMTRNYIIFIE [BCO2_Y294_G289E] | 0.575
66 | ADLAKYICENQ [ALB_Y287] | 0.485
